Reference: paper PMC7159909

Assay: Co-IP and immunoblot, WSN-infected A549
Details: glycan lost; control: si-ctrl

B1: interferon regulatory factor-5 (IRF5): si-OGT (protein)
parent chain: MNQSIPVAPTPPRRVRLKPWLVAQVNSCQYPGLQWVNGEKKLFCIPWRHATRHGPSQDGDNTIFKAWAKETGKYTEGVDEADPAKWKANLRCALNKSRDFRLIYDGPRDMPPQPYKIYEVCSNGPAPTDSQPPEDYSFGAGEEEEEEEELQRMLPSLSLTEDVKWPPTLQPPTLQPPVVLGPPAPDPSPLAPPPGNPAGFRELLSEVLEPGPLPASLPPAGEQLLPDLLISPHMLPLTDLEIKFQYRGRPPRALTISNPHGCRLFYSQLEATQEQVELFGPISLEQVRFPSPEDIPSDKQRFYTNQLLDVLDRGLILQLQGQDLYAIRLCQCKVFWSGPCASAHDSCPNPIQREVKTKLFSLEHFLNELILFQKGQTNTPPPFEIFFCFGEEWPDRKPREKKLITVQVVPVAARLLLEMFSGELSWSADSIRLQISNPDLKDRMVEQFKELHHIWQSQQRLQPVAQAPPGAGLGVGQGPWPMHPAGMQ
In the case of B1, the “other: ubiquitination” value is reported as “decreases”.
